From patent publication US20250115677A1, “Anti-CEA Antibody Drug Conjugates and Methods of Use” (BeiGene Switzerland GmbH, priority 2022, published 2025)
Numbering of substitutions follows the chain as printed. In names and notes the source's numbering stands. Where two headings read alike, the source gives them in different places.

T1: chimeric construct (CHIM) (human)
T1 construct: CEACAM6 AA 1-273 joined to the membrane-peripheral region containing domain B3 of CEA (AA 596-687), C-terminal 6xHis; also called chimeric CEA
T1 chain: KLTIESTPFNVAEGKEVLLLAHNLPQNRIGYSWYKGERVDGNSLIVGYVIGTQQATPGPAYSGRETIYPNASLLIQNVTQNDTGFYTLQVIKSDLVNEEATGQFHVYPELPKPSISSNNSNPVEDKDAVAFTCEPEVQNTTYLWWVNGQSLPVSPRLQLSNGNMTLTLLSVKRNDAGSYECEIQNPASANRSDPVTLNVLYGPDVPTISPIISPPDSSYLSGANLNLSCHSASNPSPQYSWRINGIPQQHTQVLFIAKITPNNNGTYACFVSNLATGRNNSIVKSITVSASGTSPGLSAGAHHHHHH

T2: CHIM (Homo sapiens, UniProt P06731, A174T/A211G/A239V/A261S/A267P/C12H/D173N/E253A/E283V/F203L/F272R/F277P/F63I/H123Q/H61N/H9C/I100T/I112V/I113T/I13V/I230T/I80V/INS244IISP/K155N/K214E/L18V/L245P/L62R/N182G/N204S/N246D/N288K/P266S/P287A/Q16K/Q78L/R139H/R17E/R198M/R224N/R250L/R77S/S228P/S280H/T171V/T206K/T210A/T217I/T247S/T276I/V221A/V273I/V291P/V55A/W11L)
T2 construct: CEACAM6 N-terminal part (fusion partner); 6xHis (C); made in house; host or cells: HEK293-based mammalian cell expression system
T2 sequence (P06731 with tags, fused parts or gaps H9C/W11L/C12H/I13V/Q16K/R17E/L18V/V55A/H61N/L62R/F63I/R77S/Q78L/I80V/I100T/I112V/I113T/H123Q/R139H/K155N/T171V/D173N/A174T/N182G/R198M/F203L/N204S/T206K/T210A/A211G/K214E/T217I/V221A/R224N/S228P/I230T/A239V/INS244IISP/L245P/N246D/T247S/R250L/E253A/A261S/P266S/A267P/F272R/V273I/T276I/F277P/S280H/E283V/P287A/N288K/V291P): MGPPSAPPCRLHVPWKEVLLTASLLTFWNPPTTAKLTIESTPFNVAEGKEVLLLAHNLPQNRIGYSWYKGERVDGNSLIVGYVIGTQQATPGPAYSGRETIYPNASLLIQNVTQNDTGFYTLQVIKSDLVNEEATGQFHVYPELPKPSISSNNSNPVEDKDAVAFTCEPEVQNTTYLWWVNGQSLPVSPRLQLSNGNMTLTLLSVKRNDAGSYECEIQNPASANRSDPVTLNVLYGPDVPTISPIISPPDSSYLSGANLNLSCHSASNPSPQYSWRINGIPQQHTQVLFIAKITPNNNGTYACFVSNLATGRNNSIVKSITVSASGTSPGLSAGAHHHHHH

T3: huCEA surface protein (LOVO cells) (Homo sapiens, UniProt P06731)
T3 construct: host or cells: LOVO
T3 sequence (P06731 35-676): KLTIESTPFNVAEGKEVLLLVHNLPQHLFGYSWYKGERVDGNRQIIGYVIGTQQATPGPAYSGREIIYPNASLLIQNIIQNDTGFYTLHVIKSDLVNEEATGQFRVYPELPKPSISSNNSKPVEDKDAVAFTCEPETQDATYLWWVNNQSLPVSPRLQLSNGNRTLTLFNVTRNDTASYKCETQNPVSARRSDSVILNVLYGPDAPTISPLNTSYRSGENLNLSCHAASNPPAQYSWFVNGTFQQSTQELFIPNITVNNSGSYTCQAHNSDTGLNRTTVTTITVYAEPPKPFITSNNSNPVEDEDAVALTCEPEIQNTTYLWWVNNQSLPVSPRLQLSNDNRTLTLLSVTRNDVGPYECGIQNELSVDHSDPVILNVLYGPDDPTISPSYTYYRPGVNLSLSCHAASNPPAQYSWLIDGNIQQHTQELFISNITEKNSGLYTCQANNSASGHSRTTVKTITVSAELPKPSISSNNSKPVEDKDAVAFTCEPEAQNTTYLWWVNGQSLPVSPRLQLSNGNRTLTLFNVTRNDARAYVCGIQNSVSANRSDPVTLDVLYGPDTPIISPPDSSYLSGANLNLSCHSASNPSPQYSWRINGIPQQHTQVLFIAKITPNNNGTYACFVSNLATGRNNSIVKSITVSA

B1: BGA7592-1F (antibody, human IgG1, V domains shown)
VH: QVQLVQSGAEVKKPGASVKVSCKASGYIFTSYWLHWVRQAPGQGLEWIGYINPQTGYTSYAQKFQGRVTMTRDTSTSTVYMELSSLRSEDTAVYYCAREYGNYNYPLDYWGQGTLVTVSS
VL: DIQMTQSPSSLSASVGDRVTITCRASENIYGYLAWYQQKPGKVPKLLIYNAKNLVEGVPSRFSGSGSGTDFTLTISSLQPEDVATYYCQHHYGTPYTFGQGTKVEIK
notes: BGA7592-1 with N54Q, N59S, S61A in VH; human IgG1 wild type / kappa format; also called BGA5366
B2: BGA7592-1F (BGA5366): "BGA7592-1F (also described herein as BGA5366)"; humanized anti-CEA antibody, parent of the affinity matured clones (antibody, V domains shown)
VH: B1 VH
VL: B1 VL
B3: BGA7592-1F-ph-M (BGA2433): affinity matured clone of BGA7592-1F, "(SEQ ID NO:96)", "improved affinities to huCEA surface protein"; template for further engineering (protein)
chain: B1 VL with I29Q, A51T, Y92L
modifications: Synthetic: BGA7592-1F-ph-M VL
notes: template for further engineering
B4: BGA7592-1F-ph-L (BGA3676): affinity matured clone of BGA7592-1F, "(SEQ ID NO:95)", "improved affinities to huCEA surface protein" (protein)
chain: B1 VL with I29Q, A51F, Y92L
modifications: Synthetic: BGA7592-1F-ph-L VL
B5: BGA7592-1F-ph-M (antibody, human IgG1, V domains shown)
VH: B1 VH
VL: B1 VL with I29Q, A51T, Y92L
notes: human IgG1/kappa; also called BGA2433
B6: BGA7592-1F-ph-L (antibody, human IgG1, V domains shown)
VH: B1 VH
VL: B1 VL with I29Q, A51F, Y92L
notes: human IgG1/kappa; also called BGA3676

How the values were obtained:
MKN45 cells = assay: Payload sensitivity of MKN45 cells; assay type: cell-based, human
Procedure: At Day 0, cells were harvested with 0.25% trypsin-EDTA, plated at 5,000 cells/well in 96-well plates (655090, Greiner), and incubated at 37° C., 5% CO2 overnight. At Day 1, payload compounds were added (5× dilution) into plates. Cell and compound mixtures were incubated at 37° C., 5% CO2 for 6 days. Survival cell signaling was collected at Day 6 with 100 μL of detection reagent (G7573, Promega®); signal was read by Tecan Spark®. Data were analyzed by GraphPad Prism 9.0.0. All killing concentrations were duplicated or triplicated (Table 21 and FIG. 16). “SABC” refers to specific antibody binding capacity.

[1] = target: T1, chimeric construct (CHIM); assay: SPR (BIAcore T-200); antibody captured on anti-human IgG chip, CHIM flowed (1.37-333 nM)
Procedure: For this experiment, anti-human IgG (Fc) antibody was immobilized on an activated CM5 biosensor chip (Cat. No. BR100839, GE Life Sciences). Anti-CEA antibodies were flowed over the chip surface and captured by anti-human Fab antibody. […] For flow cytometry, CEA-expressing cells (10′ cells/well) were incubated with various concentrations of purified affinity-matured antibodies, followed by binding with Alexa Fluro-647-labeled anti-hu IgG Fc antibody (Cat. No. 409320, BioLegend, USA). Cell fluorescence was quantified using a flow cytometer (Guava easyCyte™ 8HT, Merck-Millipore, USA). The equilibrium dissociation constant (KD) was calculated as the ratio koff/kₒₙ.

CHIM [2] = target: T2, CHIM; assay: SPR affinity comparison of affinity matured humanized BGA7592 variants on CHIM; assay type: binding; conditions: Table 9, SPR on CHIM
Procedure: (§1) Affinity comparison of BGA7592-1F (BGA5366) and other affinity matured clones was made by SPR assay (Table 9) using BIAcore™ T-200 (GE Life Sciences) and flow cytometry (FIG. 7). For this experiment, anti-human IgG (Fc) antibody was immobilized on an activated CM5 biosensor chip (Cat. No. BR100839, GE Life Sciences). Anti-CEA antibodies were flowed over the chip surface and captured by anti-human Fab antibody. Then a serial dilution (1.37 nM to 333 nM) of CHIM was flowed over the chip surface and changes in surface plasmon resonance signals were analyzed to calculate the association rates (kon) and dissociation rates (koff) by using the one-to-one Langmuir binding model (BIA Evaluation Software, GE Life Sciences). For flow cytometry, CEA-expressing cells (10′ cells/well) were incubated with various concentrations of purified affinity-matured antibodies, followed by binding with Alexa Fluro-647-labeled anti-hu IgG Fc antibody (Cat. No. 409320, BioLegend, USA). Cell fluorescence was quantified using a flow cytometer (Guava easyCyte™ 8HT, Merck-Millipore, USA). The equilibrium dissociation constant (KD) was calculated as the ratio koff/kon.

[3] = target: T3, huCEA surface protein (LOVO cells); assay: Flow cytometry binding of affinity matured humanized BGA7592 variants to LOVO cells
Procedure: as §1

CHIM [4] = target: T2, CHIM; assay: SPR affinity comparison of affinity matured humanized BGA7592 variants on CHIM; assay type: binding; conditions: Table 11, SPR to CHIM
[5] = target: T1, chimeric construct (CHIM); assay: SPR; binding to CHIM

Molecule	Kd [1] [nM]	koff [1] [s⁻¹]	kon [1] [M⁻¹ s⁻¹]	Ka (CHIM [2]) [M⁻¹ s⁻¹]	Rmax (CHIM [2]) [RU]	further results
COc1cc2cc(c1Cl)N(C)C(=O)C[C@H](OC(=O)[C@H](C)N(C)C(=O)CCC(C)(C)S)[C@]1(C)O[C@H]1[C@H](C)[C@@H]1C[C@@](O)(NC(=O)O1)[C@H](OC)/C=C/C=C(\C)C2 [P1, DM4]						Emax (MKN45 cells; MKN45, 6 days): 97.6; EC50 (MKN45 cells; MKN45, 6 days, read-out: EC50): 1.16 nM
CC[C@@]1(O)C(=O)OCc2c1cc1n(c2=O)Cc2c-1nc1cc(F)c(C)c3c1c2[C@@H](NC(=O)CO)CC3 [P2, DXD]						EC50 (MKN45 cells; Homo sapiens, MKN-45, […]): 2.08 nM; Emax (MKN45 cells; Homo sapiens, MKN-45, […]): 98.1%
CC[C@@]1(O)C(=O)OCc2c1cc1n(c2=O)Cc2c-1nc1cc(F)c(C)c3c1c2[C@@H](NC(=O)C(C)(C)CO)CC3 [P3, N-((1S,9S)-9-ethyl-5-fluoro-9-hydroxy-4-methyl-10,13-dioxo-2,3,9,10,13,15-hexahydro-1H,12H-benz′[d′]pyrano[3′,4′:6,7]indolizino[1,2-b]quinolin-1-yl)-3-hydroxy-2,2-dimethylpropanamide]						EC50 (MKN45 cells; Homo sapiens, MKN-45, MKN45, 6 days, read-out: EC50): 0.89 nM; Emax (MKN45 cells; Homo sapiens, MKN-45, MKN45, 6 days, read-out: Emax): 97%
B1	790	0.0015	1900			
B2				1900	367	
B3				2500	224	affinities to huCEA surface protein [3]: improved affinities; Ka (CHIM [4]): 19700 M⁻¹ s⁻¹; Rmax (CHIM [4]): 97.2 RU
B4				6700	184	affinities to huCEA surface protein [3]: improved affinities
B5	99	0.00025	2500			Kd [5]: 12.6 nM; koff [5]: 0.000248 s⁻¹; kon [5]: 19700 M⁻¹ s⁻¹
B6	46	0.0003	6700			
